{"source": "patent US20170190775A1", "about": "(published 2017)", "experiment_in_all_cases": "SPR, TREM-1 variant captured by anti-His, Fab as analyte", "key": {"[1]": {"biological_target": "T1, cTREM-1-Cmyc2-His6 (construct 0238), cynomolgus TREM-1 wt (cynomolgus monkey)", "T1 construct": "ECD with C-terminal cmyc2-His6 tag; also called wt cTREM-1", "T1 chain": "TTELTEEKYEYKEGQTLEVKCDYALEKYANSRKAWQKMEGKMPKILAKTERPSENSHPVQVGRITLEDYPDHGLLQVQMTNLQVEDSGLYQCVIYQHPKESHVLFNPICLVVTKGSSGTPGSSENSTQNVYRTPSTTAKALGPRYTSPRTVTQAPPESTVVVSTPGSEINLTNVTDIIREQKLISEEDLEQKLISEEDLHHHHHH", "procedure": "(§1) Binding studies were performed on a ProteOn Analyzer that measures molecular interactions in real time through surface plasmon resonance. Experiments were run at 25° C. and the samples were stored at 15° C. in the sample compartment. The signal (RU, response units) reported by the ProteOn is directly correlated to the mass on the individual sensor chip surfaces in six parallel flow cells. Anti-His monoclonal antibody was immobilised onto 6 parallel flow cells of a GLM sensor chip using a 1:1 mixture of 0.4 M EDAC [1-ethyl-3-(3-dimethylaminopropyl) carbodiimide hydrochloride] and 0.1 M Sulfo-NHS [N-hydroxysulfosuccinimide]. […] Immobilisation was performed with all steps in horizontal direction. […] Cell culture medium from HEK 293 cells expressing wild type or different mutated variants of human or cynomolgus TREM-1 ECD was diluted 40-60 times in running buffer (10 mM HEPES, 150 mM NaCl, 3 mM EDTA, 0.05% surfactant P20, pH 7.4). TREM-1 proteins were injected over immobilised anti-His capture antibody in the vertical direction at 30 μl/min for 60 s. […] Each Fab was injected over parallel flow cells in the horizontal direction to allow for kinetic analysis of binding to TREM-1 variants captured by anti-His antibody. Prior to injection each Fab was diluted to 0, 5.5 (in one experiment), 16.7 and 50 nM in running buffer, and injected at 100 μl/min for 250 s (association time). The dissociation time following these injections was monitored for 10 minutes. The GLM chip was regenerated after each interaction cycle of TREM-1 and Fab via two 18 s injections of 10 mM Glycine and 50 mM NaOH at 100 μl/min. This regeneration step removed the TREM-1 variants and any bound Fab from the anti-His antibody surface, and allowed for the subsequent binding of the next interaction pair."}, "[2]": {"biological_target": "T2, cynomolgus TREM-1 partly humanised with back mutation 1 (construct 0240) (cynomolgus monkey)", "T2 construct": "Printed A44A = A44 kept", "T2 chain": "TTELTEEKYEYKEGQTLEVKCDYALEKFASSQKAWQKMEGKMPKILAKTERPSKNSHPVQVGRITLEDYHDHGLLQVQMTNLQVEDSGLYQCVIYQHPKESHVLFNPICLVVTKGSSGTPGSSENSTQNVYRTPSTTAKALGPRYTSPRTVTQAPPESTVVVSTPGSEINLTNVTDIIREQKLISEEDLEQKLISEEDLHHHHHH", "procedure": "as §1"}, "[3]": {"biological_target": "T3, cynomolgus TREM-1 partly humanised (construct 0239) (cynomolgus monkey)", "T3 chain": "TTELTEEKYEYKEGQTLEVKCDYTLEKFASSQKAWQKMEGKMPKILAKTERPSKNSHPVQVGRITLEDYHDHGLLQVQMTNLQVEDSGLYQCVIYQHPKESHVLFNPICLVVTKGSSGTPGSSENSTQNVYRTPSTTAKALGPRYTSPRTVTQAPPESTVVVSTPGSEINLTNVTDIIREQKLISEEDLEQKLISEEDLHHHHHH", "procedure": "as §1"}, "[4]": {"biological_target": "T4, cynomolgus TREM-1 partly humanised with back mutation 4 (construct 0243) (cynomolgus monkey)", "T4 construct": "Printed R52R = R52 kept", "T4 chain": "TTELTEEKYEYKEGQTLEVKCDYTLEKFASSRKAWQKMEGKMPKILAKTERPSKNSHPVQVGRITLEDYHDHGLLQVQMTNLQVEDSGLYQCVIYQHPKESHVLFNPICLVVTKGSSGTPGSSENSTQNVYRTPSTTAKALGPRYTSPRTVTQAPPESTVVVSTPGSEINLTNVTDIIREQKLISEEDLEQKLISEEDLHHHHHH", "procedure": "as §1"}, "[5]": {"biological_target": "T5, A24T/Y28F/N30S/R32Q/P70H-cTREM-1-Cmyc2-His6 (construct 0244), partly humanised with back mutation 5 (cynomolgus monkey)", "T5 construct": "the entry already carries the mutations", "T5 chain": "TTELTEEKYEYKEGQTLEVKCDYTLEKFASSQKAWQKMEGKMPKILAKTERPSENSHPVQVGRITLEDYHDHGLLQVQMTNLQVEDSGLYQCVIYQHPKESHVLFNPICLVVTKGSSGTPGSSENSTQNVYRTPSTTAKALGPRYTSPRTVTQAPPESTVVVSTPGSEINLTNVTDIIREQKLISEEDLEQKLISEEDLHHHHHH", "procedure": "as §1"}, "[6]": {"biological_target": "T6, cynomolgus TREM-1 partly humanised with back mutation 2 (construct 0241) (cynomolgus monkey)", "T6 construct": "Printed Y48Y = Y48 kept", "T6 chain": "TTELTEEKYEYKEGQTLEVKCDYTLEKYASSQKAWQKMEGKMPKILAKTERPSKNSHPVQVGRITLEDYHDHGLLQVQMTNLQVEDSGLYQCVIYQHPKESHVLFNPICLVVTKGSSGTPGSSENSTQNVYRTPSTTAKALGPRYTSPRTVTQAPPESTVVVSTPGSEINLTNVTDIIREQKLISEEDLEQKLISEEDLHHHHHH", "procedure": "as §1"}, "[7]": {"biological_target": "T7, A24T/Y28F/N30S/R32Q/E54K-cTREM-1-Cmyc2-His6 (construct 0245), partly humanised with back mutation 6 (cynomolgus monkey)", "T7 construct": "the entry already carries the mutations", "T7 chain": "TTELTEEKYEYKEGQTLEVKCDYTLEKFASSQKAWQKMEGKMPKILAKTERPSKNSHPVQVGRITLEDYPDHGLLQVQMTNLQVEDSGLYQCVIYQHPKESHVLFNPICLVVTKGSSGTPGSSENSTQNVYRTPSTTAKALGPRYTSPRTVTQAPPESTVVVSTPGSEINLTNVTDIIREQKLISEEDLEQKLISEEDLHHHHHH", "procedure": "as §1"}, "[8]": {"biological_target": "T8, cynomolgus TREM-1 partly humanised with back mutation 3 (construct 0242) (cynomolgus monkey)", "T8 construct": "Printed N50N = N50 kept", "T8 chain": "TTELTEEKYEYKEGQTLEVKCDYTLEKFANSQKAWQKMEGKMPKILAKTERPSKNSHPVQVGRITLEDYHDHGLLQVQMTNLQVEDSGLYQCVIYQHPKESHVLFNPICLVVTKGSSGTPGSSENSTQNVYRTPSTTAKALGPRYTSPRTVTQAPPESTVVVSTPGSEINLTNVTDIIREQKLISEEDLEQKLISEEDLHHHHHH", "procedure": "as §1"}}}
{"binder": "Fab region of mAb 0170 (Fab, V domains shown, also called 0170 Fab; Fab 0170) VH: EVQLVESGGGLVQPGGSLKLSCAASGFTFSTYAMHWVRQASGKGLEWVGRIRTKSSNYATYYAASVKGRFTISRDDSKNTAYLQMNSLKTEDTAVYYCTRDMGIRRQFAYWGQGTLVTVSS VL: DIVLTQSPDSLAVSLGERATINCRASESVDTFDYSFLHWYQQKPGQPPKLLIYRASNLESGVPDRFSGSGSGTDFTLTISSLQAEDVAVYYCQQSNEDPYTFGQGTKLEIKR", "values": [{"measurement": "Kd", "setting": "[1]", "value": 1, "unit": "nM"}, {"measurement": "Kd", "setting": "[2]", "value": 2, "unit": "nM"}, {"measurement": "Kd", "setting": "[3]", "value": 2, "unit": "nM"}, {"measurement": "binding result", "setting": "[4]", "value": "no binding (tested: up to 50 nM Fab)"}, {"measurement": "Kd", "setting": "[5]", "value": 1, "unit": "nM"}, {"measurement": "Kd", "setting": "[6]", "value": 2, "unit": "nM"}, {"measurement": "Kd", "setting": "[7]", "value": 1, "unit": "nM"}, {"measurement": "Kd", "setting": "[8]", "value": 1, "unit": "nM"}]}
